# Ends that are not written are not given here.
# How the values were obtained:
# [1] = P-15 bound to ABM particles after pretreatment, coating and washing (ELISA), effect of osmolarity; type: physicochemical, Bovine; details: Hepes buffer pH 7.2
# Method: (§1) ABM particles were incubated in a buffered solution that contained varying amounts of NaCl to modulate the final osmolarity. The ABM particles were incubated in the solutions for 18-24 hours, rinsed a second time in the same buffer, and dried. The pre-treated surface modified ABM particles were then incubated with P-15 dissolved in the same buffer as used during the pre-treatment step to coat the particles with P-15 peptide. Following the P-15 coating step, the ABM particles were washed repeatedly with the corresponding buffer solution. The amount of bound P-15 was determined using an ELISA test method. The different runs represent different preparations of the same ABM source.
# [2] = as above; type: physicochemical; details: Hepes buffer pH 7.2, Porcine Cancellous Run #1
# Method: as §1
# [3] = P-15 bound on final washed ABM particles, effect of pretreatment and freezing/drying technique; type: physicochemical
# Method: Step 1: PRETREATMENT—ABM is pretreated in a Hypertonic (˜460 mM NaCl) HEPES buffer, pH 7.2, at a 10:1 ratio (ml solution to g ABM) for 24 hours. This solution is decanted off after 24 hours. This wash is repeated with fresh solution for 1 hour or until there is no pH change upon exposure to fresh solution. The final wash solution is decanted and the ABM is vacuum dried. The pretreatment step is performed with agitation of some kind (roller, rotation, etc.).
# Step 2: COATING—A P-15 coating buffer (concentration depends on final desired P-15 coated on ABM) is made using hypertonic HEPES, pH 7.2. Pretreated ABM is coated using a 2:1 ratio (mL solution to g ABM) for 24 hours. This step is performed statically, with no agitation.
# Step 3: WASHING—After the 24 hour coating step, the solution is removed by a rapid vacuum filtration process. The coated ABM is washed 6-12 times in a 10:1 ratio of solution to ABM using hypertonic HEPES buffer, pH 7.2. Vacuum filtration is performed between each wash to remove the solution. After the final wash, the washed ABM is then vacuum dried overnight.
# ABM particles are produced as described in step 1 of Example 1, where step 1 further includes freezing and then drying the ABM particles subjected to hypertonic buffer.
# Paired samples of pretreated ABM particles were freeze-dried (F/D) by two different methods, and a third sample was simply air dried (without any freezing). One sample was placed on a controlled ambient temperature F/D shelf and a vacuum was immediately pulled to initiate rapid evaporative freezing (FD-EC). The second sample was placed on an ambient F/D shelf and slowly frozen by ramped freezing (˜1-2° C. per minute). Once the sample was frozen the vacuum was initiated; this process is considered standard freeze-drying. The F/D process was used for both (a) the pretreatment step 1 and the washing (post-coating) step 3. The third samples was not frozen; the water was removed from the sample by air-drying at both drying steps. The following table indicates the amount of bound P15 on the final washed product. Table 4 indicates the amount of bound P-15 on the final washed ABM particles.
# Paired samples of pretreated ABM particles were F/D by two different methods. One sample was placed on a controlled ambient temperature F/D shelf and a vacuum was immediately pulled to initiate rapid evaporative freezing. The second sample was placed on an uncooled shelf and a vacuum was immediately pulled to initiate evaporative cooling (vacuum oven drying). It should be noted that the rate of cooling is slower for this process due to the shelf temperature and the strength of vacuum. The F/D process was used for both (a) the pretreatment step 1 and the washing (post-coating) step 3. Table 5 indicates the amount of bound P-15 on the final washed ABM particles.
# Four paired samples of pretreated ABM particles were F/D by two methods, alternately performed at the two separate drying steps. Two samples were F/D by vacuum oven drying after the pretreatment step and then dried by either the vacuum oven drying process or by FD-EC (placed on a controlled ambient temperature F/D shelf and a vacuum was immediately pulled to initiate rapid evaporative freezing) method after the P-15 coating step. The other two samples were dried by FD-EC after the pretreatment step and then dried by either the vacuum oven drying process or by FD-EC method after the P-15 coating Table 6 table indicates the amount of bound P-15 on the final washed ABM particles.
# Paired samples of pretreated ABM particles were F/D by two different methods. One sample was rapidly frozen using a blast-freezer. The frozen sample was placed on a cold F/D shelf and a vacuum was immediately pulled. The second samples was placed on an uncooled shelf and a vacuum was immediately pulled to initiate evaporative cooling. The F/D process was used for both (a) the pretreatment step 1 and the washing (post-coating) step 3. […]
sequence,measurement,setting,value
"GTPGPQGIAGQRGVV [P-15, cell adhesion (collagen mimetic) peptide coated onto ABM particles]",P-15 Concentration Bound to ABM Particles,"[1]; Hypertonic Solution (2.7%saline), Bovine Cancellous Run #1",149 ng-P-15/g-ABM
same,P-15 Concentration Bound to ABM Particles,"[1]; Hypertonic Solution (2.7%saline), Bovine Cancellous Run #2",1024 ng-P-15/g-ABM
same,P-15 Concentration Bound to ABM Particles,"[1]; Hypertonic Solution (2.7%saline), Bovine Cortical Run #1",153 ng ng-P-15/g-ABM
same,P-15 Concentration Bound to ABM Particles,"[1]; Hypertonic Solution (2.7%saline), Bovine Cortical Run #2",105 ng-P-15/g-ABM
same,P-15 Concentration Bound to ABM Particles,"[1]; Hypotonic Solution (0% saline), Bovine Cancellous Run #1",68 ng-P-15/g-ABM
same,P-15 Concentration Bound to ABM Particles,"[1]; Hypotonic Solution (0% saline), Bovine Cancellous Run #2",651 ng-P-15/g-ABM
same,P-15 Concentration Bound to ABM Particles,"[1]; Hypotonic Solution (0% saline), Bovine Cortical Run #1",105 ng ng-P-15/g-ABM
same,P-15 Concentration Bound to ABM Particles,"[1]; Hypotonic Solution (0% saline), Bovine Cortical Run #2",64 ng-P-15/g-ABM
same,P-15 Concentration Bound to ABM Particles,"[1]; Isotonic Solution (0.9% saline), Bovine Cancellous Run #1",129 ng-P-15/g-ABM
same,P-15 Concentration Bound to ABM Particles,"[1]; Isotonic Solution (0.9% saline), Bovine Cancellous Run #2",611 ng-P-15/g-ABM
same,P-15 Concentration Bound to ABM Particles,"[1]; Isotonic Solution (0.9% saline), Bovine Cortical Run #1",116 ng ng-P-15/g-ABM
same,P-15 Concentration Bound to ABM Particles,"[1]; Isotonic Solution (0.9% saline), Bovine Cortical Run #2",66 ng-P-15/g-ABM
same,P-15 Concentration Bound to ABM Particles,[2]; Hypertonic Solution (2.7%saline),376 ng ng-P-15/g-ABM
same,P-15 Concentration Bound to ABM Particles,[2]; Hypotonic Solution (0% saline),231 ng ng-P-15/g-ABM
same,P-15 Concentration Bound to ABM Particles,[2]; Isotonic Solution (0.9% saline),283 ng ng-P-15/g-ABM
same,P-15 ng/g ABM,"[3]; Table 4, Air drying at both drying steps, no freezing",74 ng/g ABM
same,P-15 ng/g ABM,"[3]; Table 4, Rapid freeze in freeze-dryer at pretreatment and post-coating steps",1521 ng/g ABM
same,P-15 ng/g ABM,"[3]; Table 4, Slow freeze in freeze-dryer at pretreatment and post-coating steps",366 ng/g ABM
same,P-15 ng/g ABM,"[3]; Table 5, Intermediate freeze in vacuum oven",308 ng/g ABM
same,P-15 ng/g ABM,"[3]; Table 5, Rapid freeze in freeze-dryer",4201 ng/g ABM
same,P-15 ng/g ABM,"[3]; Table 6, Pretreatment Step FD-EC, P-15 Coating Step FD-EC",351 ng/g ABM
same,P-15 ng/g ABM,"[3]; Table 6, Pretreatment Step FD-EC, P-15 Coating Step Vacuum oven",261 ng/g ABM
same,P-15 ng/g ABM,"[3]; Table 6, Pretreatment Step Vacuum oven, P-15 Coating Step FD-EC",77 ng/g ABM
same,P-15 ng/g ABM,"[3]; Table 6, Pretreatment Step Vacuum oven, P-15 Coating Step Vacuum oven",72 ng/g ABM
same,P-15 ng/g ABM,"[3]; Table 7, Blast-freeze followed by standard freeze-dryer",260 ng/g ABM
same,P-15 ng/g ABM,"[3]; Table 7, Intermediate freeze in vacuum oven",80 ng/g ABM

# Source: patent publication US20210244857A1, “PEPTIDE-COATED CALCIUM PHOSPHATE PARTICLES” (Cerapedics, Inc., priority 2016, published 2021)
